Reference: article PMC7337897

Biological target: E2F1 (UniProt Q01094)
Experiment: proximity ligation; in situ PLA in fixed, permeabilised H1299 cells, under normal (EV) and GAr-induced mRNA translation stress conditions; Duolink PLA kit; the antibodies of the protein-protein PLA are not told

Chain of UniProt Q01094 (Q01094 whole entry): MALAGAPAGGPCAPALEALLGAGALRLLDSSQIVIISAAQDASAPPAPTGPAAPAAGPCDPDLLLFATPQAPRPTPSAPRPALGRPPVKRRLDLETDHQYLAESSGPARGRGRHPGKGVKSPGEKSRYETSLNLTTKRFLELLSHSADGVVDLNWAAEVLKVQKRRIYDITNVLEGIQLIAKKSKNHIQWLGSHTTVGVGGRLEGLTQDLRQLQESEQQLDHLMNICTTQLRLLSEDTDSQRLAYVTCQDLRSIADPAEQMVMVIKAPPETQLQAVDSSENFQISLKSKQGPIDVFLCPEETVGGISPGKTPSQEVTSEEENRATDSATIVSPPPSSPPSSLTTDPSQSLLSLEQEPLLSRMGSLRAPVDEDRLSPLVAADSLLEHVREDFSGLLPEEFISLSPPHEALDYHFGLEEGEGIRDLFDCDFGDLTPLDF

“MDM2 (from UniProt Q00987 1-491) (natural protein)” was tested, and the PLA interactions per cell (interactions per cell) was 20.
